Experimental data as given in patent US20030199671A1, “Binding molecules for Fc-region polypeptides” (priority 2001, published 2003).
Read-outs that look alike come from different tables or passages of the source. Each block holds one substance with its values, some of them ahead of it. code X = not defined here; code Z = not defined here; Su = not defined here

What was measured:
[1] = molecular target: IgG4 (Homo sapiens, UniProt P01861); type: binding; parameters: all human subtypes derived from myeloma patients; purchased Calbiochem 400126; host or cells: myeloma patients; settings: for Batch Binding (% Capture of Total Load) hIgG4: Table 18, average ligand density 1.9 μmole/ml
Sequence of IgG4 (P01861 1-327 isoform P01861-1): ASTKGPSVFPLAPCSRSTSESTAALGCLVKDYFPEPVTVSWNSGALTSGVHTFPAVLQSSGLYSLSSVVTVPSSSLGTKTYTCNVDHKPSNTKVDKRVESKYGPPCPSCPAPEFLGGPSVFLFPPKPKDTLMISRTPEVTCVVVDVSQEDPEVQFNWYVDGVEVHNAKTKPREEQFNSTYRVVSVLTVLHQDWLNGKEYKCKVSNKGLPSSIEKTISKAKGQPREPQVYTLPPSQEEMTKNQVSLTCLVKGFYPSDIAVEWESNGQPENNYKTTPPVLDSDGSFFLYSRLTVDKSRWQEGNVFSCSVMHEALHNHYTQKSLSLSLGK
Experimental: (§1) In addition, the following targets, all unfractionated IgGs, were also evaluated with selected immobilized peptides for species specificity characterization in a similar format: human IgG, goat IgG, bovine IgG, and mouse IgG (Sigma, product nos. I4506, I5256, I5506, and I15381, respectively). In addition, 10 μl aliquots of hydrolyzed NHS-activated Sepharose 4 Fast Flow (Amersham Pharmacia Biotech, product no. 17-0906-01) and immobilized recombinant Protein A (RepliGen Corp., product no. IPA-400) were also assayed as negative and positive controls. IgG targets were diluted into 10 mM phosphate buffer containing 150 mM NaCl and 0.01% Tween 20, pH 7.2 (PBST) or 50 mM Tris buffer containing, 150 mM NaCl and 0.01% Tween-20, pH 7.5 (TBST). Batch (static) binding and elution studies were conducted in a 96-well assay filterplate (Millipore MultiScreen-HV, with 0.45 μm Durapore membrane, product no. MAHVN4510). The target was allowed to incubate with the resin for 1-1.5 hours with shaking at room temperature. Unbound target was collected by centrifugation of samples from the assay plate directly into a low-UV absorbing 96-well collection plate (Costar, product no. 3635 or Greiner, product no. 655801). The unbound target was then quantitated by reading the absorbance at 280 nm (normalized to 1 cm pathlength, 1.4 mg/ml A280 extinction coefficient) of the collection plate on a microplate spectrophotometer (Molecular Devices Corp., SPECTRAmax PLUS) against a buffer blank.
(§2) The percentage bound target was determined by subtracting the mass determined as unbound from the corresponding condition's control values (control non-filtered added directly to the collection plate and/or the negative control). The assay plate was washed (3×) with 200 μl of binding buffer by vacuum filtration followed by addition of 100 μl of various elution conditions (e.g.: 0.1 M sodium bicarbonate buffer, pH 8.5 and/or 0.1 M sodium citrate buffer, pH 4.0). After a 30-60 minute incubation with shaking at room temperature, the eluted target was collected by centrifugation of the assay plate into another collection plate and quantitated in a similar manner. Percent elution of total load was then determined to characterize elution recovery efficiency under various conditions. The assay plate was then washed (3×) with 200 μl of binding buffer by vacuum filtration followed by addition of a resin cleaning condition (e.g., 0.1M CAPS buffer (3-[Cyclohexylamino]-1-propane-sulfonic acid), pH 11.5, to regenerate the resin for re-use. Percentage mass balance determination was calculated to be 90-100% on average.

[2] = molecular target: IgG3 (Homo sapiens, UniProt P01860); type: binding; parameters: all human subtypes derived from myeloma patients; purchased Calbiochem 400124; host or cells: myeloma patients; settings: for Batch Binding (% Capture of Total Load) hIgG3: Table 18, average ligand density 1.9 μmole/ml
Sequence of IgG3 (P01860 1-377 isoform P01860-1): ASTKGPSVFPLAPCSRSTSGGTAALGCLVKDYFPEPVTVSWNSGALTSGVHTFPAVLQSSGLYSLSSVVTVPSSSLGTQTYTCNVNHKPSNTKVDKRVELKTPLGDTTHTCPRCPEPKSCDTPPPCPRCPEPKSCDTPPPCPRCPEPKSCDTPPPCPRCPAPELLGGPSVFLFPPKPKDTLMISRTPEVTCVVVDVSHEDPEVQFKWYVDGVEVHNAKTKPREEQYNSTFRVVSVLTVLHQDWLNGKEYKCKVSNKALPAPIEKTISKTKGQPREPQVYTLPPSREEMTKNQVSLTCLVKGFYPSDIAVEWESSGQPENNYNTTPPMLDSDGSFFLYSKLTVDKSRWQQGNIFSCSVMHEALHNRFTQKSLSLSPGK
Experimental: as §1, §2

[3] = test system: goat IgG; type: binding
Experimental: as §1, §2

[4] = molecular target: T1, human IgG2 (Homo sapiens, UniProt P01859); type: binding; settings: for Batch Binding (% Capture of Total Load) hIgG2: Table 18, average ligand density 1.9 μmole/ml
T1 construct: all human subtypes derived from myeloma patients; purchased Calbiochem 400122; host or cells: myeloma patients
T1 sequence (P01859 1-326 isoform P01859-1): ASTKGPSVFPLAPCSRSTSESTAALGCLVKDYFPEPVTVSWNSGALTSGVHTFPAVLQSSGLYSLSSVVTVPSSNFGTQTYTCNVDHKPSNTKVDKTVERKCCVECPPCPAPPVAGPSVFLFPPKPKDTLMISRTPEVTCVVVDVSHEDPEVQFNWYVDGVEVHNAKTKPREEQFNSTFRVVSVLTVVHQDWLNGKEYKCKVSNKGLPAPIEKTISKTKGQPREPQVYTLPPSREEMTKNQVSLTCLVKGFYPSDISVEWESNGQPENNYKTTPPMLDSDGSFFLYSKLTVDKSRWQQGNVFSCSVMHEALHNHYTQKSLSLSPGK
Experimental: as §1, §2

[5] = test system: bovine IgG; type: binding; settings: Table 11; unfractionated IgG
Experimental: as §1, §2

[6] = test system: mouse IgG; type: binding
Experimental: as §1, §2

[7] = molecular target: T2, human IgG1 (Homo sapiens, UniProt P01857); type: binding; settings: for Batch Binding (% Capture of Total Load) hIgG1: Table 18, average ligand density 1.9 μmole/ml
T2 construct: all human subtypes derived from myeloma patients; purchased Calbiochem 400120; host or cells: myeloma patients
T2 sequence (P01857 1-330 isoform P01857-1): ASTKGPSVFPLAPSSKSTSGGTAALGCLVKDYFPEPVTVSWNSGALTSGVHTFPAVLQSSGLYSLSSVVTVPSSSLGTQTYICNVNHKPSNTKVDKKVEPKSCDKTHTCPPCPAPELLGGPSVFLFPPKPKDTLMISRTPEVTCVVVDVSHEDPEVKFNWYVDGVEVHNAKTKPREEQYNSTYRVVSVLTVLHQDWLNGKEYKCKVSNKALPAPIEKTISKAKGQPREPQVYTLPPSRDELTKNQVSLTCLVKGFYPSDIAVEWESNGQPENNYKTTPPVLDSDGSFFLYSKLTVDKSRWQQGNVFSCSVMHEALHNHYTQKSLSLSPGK
Experimental: as §1, §2

[8] = test system: human IgG; type: binding; settings: for Batch Binding (% Capture of Total Load) hIgG: Table 18, average ligand density 1.9 μmole/ml
Experimental: as §1, §2

[9] = test system: human IgG; assay: Static (filterplate) binding capacity; settings: 25 mg human IgG applied per ml resin; for Static Cap.: Table 18, average ligand density 1.9 μmole/ml
Experimental: These media were used to determine the effect of ligand density on human IgG binding capacity in both static (filterplate) and dynamic (mini-column) modes with commercial immobilized recombinant Protein A (Repligen, IPA400) at a single density as control. Actual ligand densities obtained ranged from 0.17 to 3.2 μmole/ml media as confirmed by quantitative amino acid analysis.
After incubation of the samples, with shaking, at room temperature for one hour, the supernatant liquid from each well, containing unbound IgG, was collected by centrifugation into the cognate well of a collection plate. The assay plate was washed three times with PBST (200 μl/wash) and bound IgG was eluted from the media samples by incubation for 30-60 minutes at room temperature in 100 μl Elution Buffer (100 mM CAPS, pH 11.5). Eluates were collected by centrifugation for analysis. Protein concentrations were determined from A280 measurements and plotted as a function of mg human IgG bound per ml resin vs. mg human IgG applied per ml resin.
The amount of IgG captured (estimated from IgG recovered in the elution step) by the various media is dependent upon both the IgG concentration and the ligand density. […] Under these static conditions, where both ligand and target concentrations are close to KD values, equilibrium binding is established and total capacities cannot be accurately determined. However, over the IgG range of 0 to 25 mg IgG applied per ml resin (0 to 2.5 mg/ml target added to 10 μl of resin), capture of IgG is linear. Beyond this point, up to a level of 200 mg IgG applied per ml resin, saturation becomes more pronounced.

[10] = test system: human IgG; assay: Dynamic (mini-column) binding capacity; settings: Table 18; total dynamic capacity; average ligand density 1.9 μmole/ml
Experimental: These media were used to determine the effect of ligand density on human IgG binding capacity in both static (filterplate) and dynamic (mini-column) modes with commercial immobilized recombinant Protein A (Repligen, IPA400) at a single density as control.
The IgG solution was loaded onto the column at a flow rate of 0.2 ml/minute (170 cm/hr). […] At the end of the loading period, the column was washed with PBS until the absorbance at 280 nm of the column eluant returned to baseline. […] Neutralizing the pH of the eluted fractions was unnecessary since the total IgG eluted was determined by total protein absorbance at 280 nm.
To establish total media capacities, IgG was loaded onto the columns until the absorbances of the column load and flow through streams were identical (loading to full capacity). After washing the column to baseline, bound IgG was eluted and the total amount captured from this elution fraction determined. The total capacity of the media (mg IgG/ml media) as total IgG captured divided by the column bed volume was calculated.
Additionally, column capacities at 10% breakthrough were calculated from the online A280 measurements of column flowthrough streams. The A280 curves obtained for the column of interest and for an equivalent “blank” column containing hydrolyzed Sepharose FF 4 media were aligned. The difference in areas between these curves (for a retained and non-retained target) from the time of injection to the time at which the A280 value for the column of interest had risen to 10% of the maximum A280 absorbance (100%) obtained for the load solution at 100% IgG capture saturation (10% breakthrough) was graphically integrated. A standard curve was used to relate the integrated area to mg IgG bound and capacity calculated as total IgG bound divided by column bed volume.

[11] = Table 9, immobilized peptide, 5.0 mg/ml resin load
[12] = Table 14, average ligand density 1.8 μM/ml

% IgG Capture - Batch Binding, Human IgG4 [1, 11]: 1%
% IgG Capture - Batch Binding, Human IgG3 [2, 11]: 5%
% IgG Capture - Batch Binding, Goat IgG ([3]; Table 11, unfractionated IgG): 0%
% IgG Capture - Batch Binding, Human IgG2 [4, 11]: 14%
% IgG Capture - Batch Binding, Bovine IgG [5]: 0%
% IgG Capture - Batch Binding, Mouse IgG ([6]; Table 11, unfractionated IgG): 4%
% IgG Capture - Batch Binding, Human IgG1 [7, 11]: 6%
% IgG Capture - Batch Binding, Human IgG ([8]; Table 11, unfractionated IgG): 4%
Substance: Ac-AGPVDCKHHFWWCYWNGTPGPEGGGK-NH2 (not fully specified (bridges); printed as Ac-AGPVDCKHHFWWCYWNGTPGPEGGGK-NH2; cysteine pairing not given here) [DX251]

Batch Binding (% Capture of Total Load) hIgG4 [1]: 35%
Batch Binding (% Capture of Total Load) hIgG3 [2]: 7%
Decrease in apparent relative static capacity compared to DX249, DX877 and DX878 [9]: ~2 fold
Batch Binding (% Capture of Total Load) hIgG2 [4]: 54%
Batch Binding (% Capture of Total Load) hIgG1 [7]: 65%
Batch Binding (% Capture of Total Load) hIgG [8]: 49%
Dynamic Cap. [10]: 5 mg/mL
Substance: Ac-GDDHMCVYTTWGELIWCDNH-X-NH2 (Ac-GDDHMCVYTTWGELIWCDNH-{code X-NH2}; not fully specified (bridges); printed as Ac-GDDHMCVYTTWGELIWCDNH-X-NH2; cysteine pairing not given here; reading uncertain) [DX907]

Batch Binding (% Capture of Total Load) hIgG4 [1]: 33%
Decrease in apparent relative static capacity compared to DX249, DX877 and DX878 [9]: ~2 fold
Batch Binding (% Capture of Total Load) hIgG2 [4]: 54%
Batch Binding (% Capture of Total Load) hIgG1 [7]: 66%
Batch Binding (% Capture of Total Load) hIgG [8]: 49%
Substance: Ac-GDDHMCVYTTWGELIWCDNH-X-Su-X-NH2 (Ac-GDDHMCVYTTWGELIWCDNH-{code X-Su-code X-NH2}; not fully specified (bridges); printed as Ac-GDDHMCVYTTWGELIWCDNH-X-Su-X-NH2; cysteine pairing not given here; reading uncertain) [DX909]

Batch Binding (% Capture of Total Load) hIgG4 [1]: 25%
Batch Binding (% Capture of Total Load) hIgG3 [2]: 6%
Decrease in apparent relative static capacity compared to DX249, DX877 and DX878 [9]: ~2 fold
Batch Binding (% Capture of Total Load) hIgG2 [4]: 46%
Batch Binding (% Capture of Total Load) hIgG1 [7]: 58%
Batch Binding (% Capture of Total Load) hIgG [8]: 43%
Substance: Ac-GDDHMCVYTTWGELIWCDNH-X-Z-X-NH2 (Ac-GDDHMCVYTTWGELIWCDNH-{code X-code Z-code X-NH2}; not fully specified (bridges); printed as Ac-GDDHMCVYTTWGELIWCDNH-X-Z-X-NH2; cysteine pairing not given here; reading uncertain) [DX911]

Static Cap. [9]: 23 mg/mL
Batch Binding (% Capture of Total Load) hIgG [8]: 63%
Substance: Ac-GDDHMCVYTTWGELIWCDNHEPG-X-Su-X-NH2 (Ac-GDDHMCVYTTWGELIWCDNHEPG-{code X-Su-code X-NH2}; not fully specified (bridges); printed as Ac-GDDHMCVYTTWGELIWCDNHEPG-X-Su-X-NH2; cysteine pairing not given here; reading uncertain) [DX878]

Static Cap. [9]: 20 mg/mL
Batch Binding (% Capture of Total Load) hIgG [8]: 61%
Dynamic Cap. [10]: 8 mg/mL
Substance: Ac-GDDHMCVYTTWGELIWCDNHEPGPEG-X-NH2 (Ac-GDDHMCVYTTWGELIWCDNHEPGPEG-{code X-NH2}; not fully specified (bridges); printed as Ac-GDDHMCVYTTWGELIWCDNHEPGPEG-X-NH2; cysteine pairing not given here; reading uncertain) [DX877]

hIgG4 elution pH 3.0 (% of Total Load) ([1]; Table 13): 11%
% IgG Capture - Batch Binding, Goat IgG [3, 12]: 4%
hIgG1 elution pH 3.0 (% of Total Load) ([7]; Table 13): 27%
% IgG Capture - Batch Binding, Human IgG [8, 12]: 49%
Substance: Ac-GDNPMCWRAHWWEDAYCINHEPGPEGGGK-NH2 (not fully specified (bridges); printed as Ac-GDNPMCWRAHWWEDAYCINHEPGPEGGGK-NH2; cysteine pairing not given here) [DX1072]

hIgG4 elution pH 3.0 (% of Total Load) ([1]; Table 13): 5%
% IgG Capture - Batch Binding, Goat IgG [3, 12]: 3%
% IgG Capture - Batch Binding, Mouse IgG [6, 12]: 8%
hIgG1 elution pH 3.0 (% of Total Load) ([7]; Table 13): 4%
% IgG Capture - Batch Binding, Human IgG [8, 12]: 45%
Substance: Ac-GDNPMCWRASWWEDAYCINHEPGPEGGGK-NH2 (not fully specified (bridges); printed as Ac-GDNPMCWRASWWEDAYCINHEPGPEGGGK-NH2; cysteine pairing not given here) [DX1071]

hIgG4 elution pH 2.5 (% of Total Load) ([1]; Table 13): 50%
hIgG4 elution pH 3.5 (% of Total Load) ([1]; Table 13): 62%
hIgG4 elution pH 4.5 (% of Total Load) ([1]; Table 13): 13%
hIgG4 elution pH 5.5 (% of Total Load) ([1]; Table 13): 3%
hIgG4 elution pH 9.0 (% of Total Load) ([1]; Table 13): 56%
hIgG4 elution pH 9.5 (% of Total Load) ([1]; Table 13): 67%
hIgG2 elution pH 2.5 (% of Total Load) ([4]; Table 13): 82%
hIgG2 elution pH 3.5 (% of Total Load) ([4]; Table 13): 80%
hIgG2 elution pH 4.5 (% of Total Load) ([4]; Table 13): 38%
hIgG2 elution pH 5.5 (% of Total Load) ([4]; Table 13): 1%
hIgG2 elution pH 9.0 (% of Total Load) ([4]; Table 13): 51%
hIgG2 elution pH 9.5 (% of Total Load) ([4]; Table 13): 60%
% IgG Capture - Batch Binding, Mouse IgG [6, 12]: 3%
hIgG1 elution pH 2.5 (% of Total Load) ([7]; Table 13): 76%
hIgG1 elution pH 3.5 (% of Total Load) ([7]; Table 13): 81%
hIgG1 elution pH 4.5 (% of Total Load) ([7]; Table 13): 39%
hIgG1 elution pH 5.5 (% of Total Load) ([7]; Table 13): 1%
hIgG1 elution pH 9.0 (% of Total Load) ([7]; Table 13): 52%
hIgG1 elution pH 9.5 (% of Total Load) ([7]; Table 13): 57%
% IgG Capture - Batch Binding, Human IgG [8, 12]: 77%
Substance: Ac-GDSWNCAFHHNEMVWCDDGGTPGPEGGGK-NH2 (not fully specified (bridges); printed as Ac-GDSWNCAFHHNEMVWCDDGGTPGPEGGGK-NH2; cysteine pairing not given here) [DX597]
